Legend:
chymotrypsin [1] = experiment: In vitro enzyme (chymotrypsin) resistance, HIM2 and Zn HIM2 complexes; type: in vitro ADME; settings: 37° C., 0.3 mg/mL protein
Procedure: (§1) This sample serves as T=0. […] The half life was calculated using the equation: t1/2:=−0.693/slope.

chymotrypsin [2] = experiment: In vitro enzyme (chymotrypsin) resistance, IN105 and Zn IN105 complexes; type: in vitro ADME; settings: 37° C., 0.6 mg/ml protein
Procedure: as §1

Substance | T half (chymotrypsin [1]) [min] | T half (chymotrypsin [2]) [min]
HIM2 (R-type zinc complex): R-type Zn complex of HIM2, 1.1% w/w zinc, 0.1 to 0.25% w/w phenol | 19 to 21 | 
IN105 (R-type zinc complex): R-type Zn complex of IN105, 1.85% w/w zinc, 2.37% w/w phenol (as reaction 9.6.1) |  | 55.3

From patent US8563685B2, “Fatty acid formulations and oral delivery of proteins and peptides, and uses thereof” (priority 2004, dated 2013)
